We go through one molecule from patent US20050260207A1 (published 2005).

For the test, the target named is recombinant human cathepsin B (human, UniProt P07858 80-333). Put plainly: Western blot of recombinant human cathepsin B, goat anti-human IgG-HRP as secondary antibody. From the text: A: polyacrylamide gel electrophoresis of recombinant human cathepsin B (1) and of standards (2); B: Western blot—cathepsin B (1) stained with chimeric 2A2 antibody. Goat anti-human antibody (IgG) conjugated with horseradish peroxidase was used as a secondary antibody. As the substrate 0.05% diaminobenzidine (DAB) and 0.01% of H₂O₂ in 0.05M Tris/HCl buffer, pH 7.5 were used.
On the technique in general: In western blotting, separated proteins are transferred to a membrane and probed.

B1: chimeric 2A2 antibody, expressed in Chinese hamster ovary (CHO) cells (antibody, V domains shown)
VH: QVQLQQSGAELVRSGASIKLSCTASGFNIKDYYMHWVKQRPEQGLEWIGWIDPENGDTEYAPKFRGKATMTADTSSKTAYLQLSSLTSEDTAVYYCNARRHGYYEMDYWGQGTSVTVSS
VL: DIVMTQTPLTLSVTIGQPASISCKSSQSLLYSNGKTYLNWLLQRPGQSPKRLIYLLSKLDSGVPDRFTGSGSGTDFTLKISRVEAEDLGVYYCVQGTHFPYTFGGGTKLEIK
notes: A secretion leader was used for expression and is not part of the mature protein; also called chimeric antibody 2A2; 2A2 chimeric antibody; not shown: human IgG1 heavy chain constant region (human Cgamma1 region from pUC/hIgG1); human kappa light chain constant region (human Ckappa gene from pUC/hCK)
Turning to B1, the binding result is listed as “binds”.
